Assay results: patent US20180273587A1 (AILERON THERAPEUTICS, published 2018)
Positions of bridges follow the written chain, without caps; N, C: chain ends. Non-standard residues stand in square brackets, D forms with d. Bip = N[C@@H](Cc1ccc(-c2ccccc2)cc1)C(=O)O; αMeW = C[C@](N)(Cc1c[nH]c2ccccc12)C(=O)O; R8 = C=CCCCCCC[C@@](C)(N)C(=O)O; Cit = NC(=O)NCCC[C@H](N)C(=O)O; αMeL = CC(C)C[C@](C)(N)C(=O)O; S5 = C=CCCC[C@](C)(N)C(=O)O; Ac6c = NC1(C(=O)O)CCCCC1; Ac5c = NC1(C(=O)O)CCCC1; Aib = CC(C)(N)C(=O)O

B1: SEQ ID NO: 1708 (peptide)
peptide: Ac-IWIA[Aib]ALR[R8]IGDAFN[S5]YYA-NH2
modifications: staple 9-16
SMILES: CC[C@H](C)[C@H](NC(C)=O)C(=O)N[C@@H](Cc1c[nH]c2ccccc12)C(=O)N[C@H](C(=O)N[C@@H](C)C(=O)NC(C)(C)C(=O)N[C@@H](C)C(=O)N[C@@H](CC(C)C)C(=O)N[C@@H](CCCNC(=N)N)C(=O)N[C@]1(C)CCCCCCC=CCCC[C@@](C)(C(=O)N[C@@H](Cc2ccc(O)cc2)C(=O)N[C@@H](Cc2ccc(O)cc2)C(=O)N[C@@H](C)C(N)=O)NC(=O)[C@H](CC(N)=O)NC(=O)[C@H](Cc2ccccc2)NC(=O)[C@H](C)NC(=O)[C@H](CC(=O)O)NC(=O)CNC(=O)[C@H]([C@@H](C)CC)NC1=O)[C@@H](C)CC
notes: also called Ac-IWIAAibALR$r8IGDAFN$YYA-NH2
B2: SEQ ID NO: 1655 (peptide)
peptide: IWIAQALXAIGDAFNAYYA
modifications: Ac- at N-terminus; -NH2 at C-terminus; $r8 at 9 and $ at 16 joined by all-carbon crosslinker; Cit (citrulline) at 8
B3: SEQ ID NO: 1726 (peptide)
peptide: Ac-IRIAAALR[R8]IGDAFN[S5]YYA-NH2
modifications: staple 9-16
SMILES: CC[C@H](C)[C@H](NC(C)=O)C(=O)N[C@@H](CCCNC(=N)N)C(=O)N[C@H](C(=O)N[C@@H](C)C(=O)N[C@@H](C)C(=O)N[C@@H](C)C(=O)N[C@@H](CC(C)C)C(=O)N[C@@H](CCCNC(=N)N)C(=O)N[C@]1(C)CCCCCCC=CCCC[C@@](C)(C(=O)N[C@@H](Cc2ccc(O)cc2)C(=O)N[C@@H](Cc2ccc(O)cc2)C(=O)N[C@@H](C)C(N)=O)NC(=O)[C@H](CC(N)=O)NC(=O)[C@H](Cc2ccccc2)NC(=O)[C@H](C)NC(=O)[C@H](CC(=O)O)NC(=O)CNC(=O)[C@H]([C@@H](C)CC)NC1=O)[C@@H](C)CC
B4: SEQ ID NO: 1703 (peptide)
peptide: Ac-I[αMeW]IAQALR[R8]IGDAFN[S5]YYA-NH2
modifications: staple 9-16
SMILES: CC[C@H](C)[C@H](NC(C)=O)C(=O)N[C@@](C)(Cc1c[nH]c2ccccc12)C(=O)N[C@H](C(=O)N[C@@H](C)C(=O)N[C@@H](CCC(N)=O)C(=O)N[C@@H](C)C(=O)N[C@@H](CC(C)C)C(=O)N[C@@H](CCCNC(=N)N)C(=O)N[C@]1(C)CCCCCCC=CCCC[C@@](C)(C(=O)N[C@@H](Cc2ccc(O)cc2)C(=O)N[C@@H](Cc2ccc(O)cc2)C(=O)N[C@@H](C)C(N)=O)NC(=O)[C@H](CC(N)=O)NC(=O)[C@H](Cc2ccccc2)NC(=O)[C@H](C)NC(=O)[C@H](CC(=O)O)NC(=O)CNC(=O)[C@H]([C@@H](C)CC)NC1=O)[C@@H](C)CC
notes: also called Ac-IAmWIAQALR$r8IGDAFN$YYA-NH2
B5: SEQ ID NO: 1704 (peptide)
peptide: Ac-I[Aib]IAQALR[R8]IGDAFN[S5]YYA-NH2
modifications: staple 9-16
SMILES: CC[C@H](C)[C@H](NC(C)=O)C(=O)NC(C)(C)C(=O)N[C@H](C(=O)N[C@@H](C)C(=O)N[C@@H](CCC(N)=O)C(=O)N[C@@H](C)C(=O)N[C@@H](CC(C)C)C(=O)N[C@@H](CCCNC(=N)N)C(=O)N[C@]1(C)CCCCCCC=CCCC[C@@](C)(C(=O)N[C@@H](Cc2ccc(O)cc2)C(=O)N[C@@H](Cc2ccc(O)cc2)C(=O)N[C@@H](C)C(N)=O)NC(=O)[C@H](CC(N)=O)NC(=O)[C@H](Cc2ccccc2)NC(=O)[C@H](C)NC(=O)[C@H](CC(=O)O)NC(=O)CNC(=O)[C@H]([C@@H](C)CC)NC1=O)[C@@H](C)CC
notes: also called Ac-IAibIAQALR$r8IGDAFN$YYA-NH2
B6: SEQ ID NO: 1714 (peptide)
peptide: Ac-IW[Ac6c]AQALR[R8]IGDAFN[S5]YYA-NH2
modifications: staple 9-16
SMILES: CC[C@H](C)[C@H](NC(C)=O)C(=O)N[C@@H](Cc1c[nH]c2ccccc12)C(=O)NC1(C(=O)N[C@@H](C)C(=O)N[C@@H](CCC(N)=O)C(=O)N[C@@H](C)C(=O)N[C@@H](CC(C)C)C(=O)N[C@@H](CCCNC(=N)N)C(=O)N[C@]2(C)CCCCCCC=CCCC[C@@](C)(C(=O)N[C@@H](Cc3ccc(O)cc3)C(=O)N[C@@H](Cc3ccc(O)cc3)C(=O)N[C@@H](C)C(N)=O)NC(=O)[C@H](CC(N)=O)NC(=O)[C@H](Cc3ccccc3)NC(=O)[C@H](C)NC(=O)[C@H](CC(=O)O)NC(=O)CNC(=O)[C@H]([C@@H](C)CC)NC2=O)CCCCC1
notes: also called Ac-IWAc6cAQALR$r8IGDAFN$YYA-NH2
B7: SEQ ID NO: 1715 (peptide)
peptide: Ac-IW[Ac5c]AQALR[R8]IGDAFN[S5]YYA-NH2
modifications: staple 9-16
SMILES: CC[C@H](C)[C@H](NC(C)=O)C(=O)N[C@@H](Cc1c[nH]c2ccccc12)C(=O)NC1(C(=O)N[C@@H](C)C(=O)N[C@@H](CCC(N)=O)C(=O)N[C@@H](C)C(=O)N[C@@H](CC(C)C)C(=O)N[C@@H](CCCNC(=N)N)C(=O)N[C@]2(C)CCCCCCC=CCCC[C@@](C)(C(=O)N[C@@H](Cc3ccc(O)cc3)C(=O)N[C@@H](Cc3ccc(O)cc3)C(=O)N[C@@H](C)C(N)=O)NC(=O)[C@H](CC(N)=O)NC(=O)[C@H](Cc3ccccc3)NC(=O)[C@H](C)NC(=O)[C@H](CC(=O)O)NC(=O)CNC(=O)[C@H]([C@@H](C)CC)NC2=O)CCCC1
notes: also called Ac-IWAc5cAQALR$r8IGDAFN$YYA-NH2
B8: SEQ ID NO: 1723 (peptide)
peptide: Ac-[Aib]WIAAALR[R8]IGDAFN[S5]YYA-NH2
modifications: staple 9-16
SMILES: CC[C@H](C)[C@H](NC(=O)[C@H](Cc1c[nH]c2ccccc12)NC(=O)C(C)(C)NC(C)=O)C(=O)N[C@@H](C)C(=O)N[C@@H](C)C(=O)N[C@@H](C)C(=O)N[C@@H](CC(C)C)C(=O)N[C@@H](CCCNC(=N)N)C(=O)N[C@]1(C)CCCCCCC=CCCC[C@@](C)(C(=O)N[C@@H](Cc2ccc(O)cc2)C(=O)N[C@@H](Cc2ccc(O)cc2)C(=O)N[C@@H](C)C(N)=O)NC(=O)[C@H](CC(N)=O)NC(=O)[C@H](Cc2ccccc2)NC(=O)[C@H](C)NC(=O)[C@H](CC(=O)O)NC(=O)CNC(=O)[C@H]([C@@H](C)CC)NC1=O
notes: also called Ac-AibWIAAALR$r8IGDAFN$YYA-NH2
B9: SEQ ID NO: 1697 (peptide)
peptide: Ac-IWIAQA[Bip]R[R8]IGDAFN[S5]YYA-NH2
modifications: staple 9-16
SMILES: CC[C@H](C)[C@H](NC(C)=O)C(=O)N[C@@H](Cc1c[nH]c2ccccc12)C(=O)N[C@H](C(=O)N[C@@H](C)C(=O)N[C@@H](CCC(N)=O)C(=O)N[C@@H](C)C(=O)N[C@@H](Cc1ccc(-c2ccccc2)cc1)C(=O)N[C@@H](CCCNC(=N)N)C(=O)N[C@]1(C)CCCCCCC=CCCC[C@@](C)(C(=O)N[C@@H](Cc2ccc(O)cc2)C(=O)N[C@@H](Cc2ccc(O)cc2)C(=O)N[C@@H](C)C(N)=O)NC(=O)[C@H](CC(N)=O)NC(=O)[C@H](Cc2ccccc2)NC(=O)[C@H](C)NC(=O)[C@H](CC(=O)O)NC(=O)CNC(=O)[C@H]([C@@H](C)CC)NC1=O)[C@@H](C)CC
notes: also called Ac-IWIAQABipR$r8IGDAFN$YYA-NH2
B10: SEQ ID NO: 1773 (peptide)
peptide: Ac-IWIAQAL[Cit][R8]IGDAAN[S5]YYA-NH2
modifications: staple 9-16
SMILES: CC[C@H](C)[C@H](NC(C)=O)C(=O)N[C@@H](Cc1c[nH]c2ccccc12)C(=O)N[C@H](C(=O)N[C@@H](C)C(=O)N[C@@H](CCC(N)=O)C(=O)N[C@@H](C)C(=O)N[C@@H](CC(C)C)C(=O)N[C@@H](CCCNC(N)=O)C(=O)N[C@]1(C)CCCCCCC=CCCC[C@@](C)(C(=O)N[C@@H](Cc2ccc(O)cc2)C(=O)N[C@@H](Cc2ccc(O)cc2)C(=O)N[C@@H](C)C(N)=O)NC(=O)[C@H](CC(N)=O)NC(=O)[C@H](C)NC(=O)[C@H](C)NC(=O)[C@H](CC(=O)O)NC(=O)CNC(=O)[C@H]([C@@H](C)CC)NC1=O)[C@@H](C)CC
B11: SEQ ID NO: 1774 (peptide)
peptide: Ac-IWIAQAL[Cit][R8]IGDAVN[S5]YYA-NH2
modifications: staple 9-16
SMILES: CC[C@H](C)[C@H](NC(C)=O)C(=O)N[C@@H](Cc1c[nH]c2ccccc12)C(=O)N[C@H](C(=O)N[C@@H](C)C(=O)N[C@@H](CCC(N)=O)C(=O)N[C@@H](C)C(=O)N[C@@H](CC(C)C)C(=O)N[C@@H](CCCNC(N)=O)C(=O)N[C@]1(C)CCCCCCC=CCCC[C@@](C)(C(=O)N[C@@H](Cc2ccc(O)cc2)C(=O)N[C@@H](Cc2ccc(O)cc2)C(=O)N[C@@H](C)C(N)=O)NC(=O)[C@H](CC(N)=O)NC(=O)[C@H](C(C)C)NC(=O)[C@H](C)NC(=O)[C@H](CC(=O)O)NC(=O)CNC(=O)[C@H]([C@@H](C)CC)NC1=O)[C@@H](C)CC
B12: SEQ ID NO: 1767 (peptide)
peptide: Ac-IWIAQA[αMeL]R[R8]IGDAFN[S5]YYA-NH2
modifications: staple 9-16
SMILES: CC[C@H](C)[C@H](NC(C)=O)C(=O)N[C@@H](Cc1c[nH]c2ccccc12)C(=O)N[C@H](C(=O)N[C@@H](C)C(=O)N[C@@H](CCC(N)=O)C(=O)N[C@@H](C)C(=O)N[C@@](C)(CC(C)C)C(=O)N[C@@H](CCCNC(=N)N)C(=O)N[C@]1(C)CCCCCCC=CCCC[C@@](C)(C(=O)N[C@@H](Cc2ccc(O)cc2)C(=O)N[C@@H](Cc2ccc(O)cc2)C(=O)N[C@@H](C)C(N)=O)NC(=O)[C@H](CC(N)=O)NC(=O)[C@H](Cc2ccccc2)NC(=O)[C@H](C)NC(=O)[C@H](CC(=O)O)NC(=O)CNC(=O)[C@H]([C@@H](C)CC)NC1=O)[C@@H](C)CC
notes: Row prints Ac-IWIAQAAmLR$r8IGDAFN$YYA-NH2

Molecular target: BCL-2 (UniProt P10415 1-217, limits assumed)
Experiment: Ki table, method not stated

BCL-2, sequence (P10415 1-217 limits assumed): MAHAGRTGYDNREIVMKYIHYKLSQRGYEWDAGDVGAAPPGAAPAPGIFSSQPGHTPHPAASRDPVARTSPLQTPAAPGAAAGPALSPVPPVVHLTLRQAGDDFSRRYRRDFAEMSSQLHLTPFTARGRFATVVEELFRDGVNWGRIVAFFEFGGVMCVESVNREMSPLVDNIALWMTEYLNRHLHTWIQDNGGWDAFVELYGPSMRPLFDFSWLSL

Row | Ki [nM] | Binder
1 | 120 | B1
2 | 212 | B2
3 | 39.1 | B3
4 | 70.6 | B4
5 | 97.9 | B5
6 | 25.7 | B6
7 | 68.2 | B7
8 | 56 | B8
9 | 280 | B9

Molecular target: BCL-XL (UniProt Q07817 1-209)
Experiment: Ki table, method not stated

BCL-XL, sequence (Q07817 1-209): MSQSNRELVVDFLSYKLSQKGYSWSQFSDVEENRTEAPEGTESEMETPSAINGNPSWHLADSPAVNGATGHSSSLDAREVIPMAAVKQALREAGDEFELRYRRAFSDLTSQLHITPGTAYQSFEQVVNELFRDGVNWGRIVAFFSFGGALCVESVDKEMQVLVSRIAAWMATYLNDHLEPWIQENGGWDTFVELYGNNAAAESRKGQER

Row | Ki [nM] | Binder
10 | 59 | B1
11 | 109 | B2
12 | 20.5 | B3
13 | 17.4 | B4
14 | 83.5 | B5
15 | 7.7 | B6
16 | 8.4 | B7
17 | 20.3 | B8
18 | 8 | B9

Molecular target: T1, MCL-1 (UniProt Q07820 172-327, limits assumed)
T1 construct: also called Myeloid cell leukemia 1
Experiment: Ki table, method not stated
T1 sequence (Q07820 172-327 limits assumed): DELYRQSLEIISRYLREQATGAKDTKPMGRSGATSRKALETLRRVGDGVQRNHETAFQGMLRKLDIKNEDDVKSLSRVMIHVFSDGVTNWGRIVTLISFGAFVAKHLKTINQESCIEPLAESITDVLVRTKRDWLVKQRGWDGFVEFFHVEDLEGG

Row | Ki [nM] | Binder
19 | 5.5 | B1
20 | 7.5 | B2
21 | 9.8 | B3
22 | 9.9 | B4
23 | 42.5 | B5
24 | 10.4 | B6
25 | 8.9 | B7
26 | 4 | B8
27 | 83.7 | B9

Molecular target: T2, MCL-1 (UniProt Q07820 172-327, limits assumed)
T2 construct: Target of the Ki columns; also called Myeloid cell leukemia 1
Experiment: Ki; method not stated; unit not printed (nM per Table 6)
T2 sequence (Q07820 172-327 limits assumed): as above

Row | Ki [nM] | Binder
28 | 39.5 | B10
29 | 0.8 | B11
30 | 86.6 | B12
